Measurements reported in US20170073386A1 (AstraZeneca / MedImmune, published 2017).

Legend:
[1] = biological target: T1, recombinant mouse GITR-Fc (mouse, UniProt O35714 20-153, limits assumed); test: ELISA, coated mouse GITR-Fc, HRP anti-mouse Fc
T1 construct: Bought reagent; construct not described; not shown: Fc
T1 sequence (looked up): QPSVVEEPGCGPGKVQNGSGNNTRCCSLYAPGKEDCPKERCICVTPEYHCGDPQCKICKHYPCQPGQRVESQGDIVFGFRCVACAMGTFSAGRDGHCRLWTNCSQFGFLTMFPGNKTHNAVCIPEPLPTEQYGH
Protocol: (§1) Recombinant mouse GITR-Fc and OX40-Fc (R&D Systems) glycoproteins were coated overnight at 1 μg/mL in PBS onto 96-well plates (Greiner). Plates were washed with PBST (PBS+0.01% Tween-20), blocked for 1 hour at room temperature with PBS containing 1% (w/v) BSA, and washed in PBST again. Twenty-five microlitres of 1 μg/mL mouse GITRL or OX40L FPs diluted in assay buffer [PBS+1% bovine serum albumin (BSA)] was added to wells, and plates were incubated for 2 hours at room temperature. After 3 washes, 25 μL of 1 μg/mL horseradish peroxidase-conjugated anti-mouse Fc antibody (Sigma) diluted in assay buffer was added to each well, and plates were incubated for 1 hour. After incubation, plates were washed 3 times in PBST, 25 μL of tetramethylbenzidine substrate solution (KPL) was added to each well, and plates incubated for 5 minutes. After incubation 15 μL of 0.5 M sulphuric acid stop solution was added to all wells. The optical density at 450 nm was measured using an EnVision plate reader (PerkinElmer).

[2] = biological target: T2, recombinant mouse OX40-Fc (mouse, UniProt P47741 20-211, limits assumed); test: ELISA, coated mouse OX40-Fc, FP at 1 ug/mL, HRP anti-mouse Fc
T2 construct: Bought reagent; construct not described; not shown: Fc
T2 sequence (looked up): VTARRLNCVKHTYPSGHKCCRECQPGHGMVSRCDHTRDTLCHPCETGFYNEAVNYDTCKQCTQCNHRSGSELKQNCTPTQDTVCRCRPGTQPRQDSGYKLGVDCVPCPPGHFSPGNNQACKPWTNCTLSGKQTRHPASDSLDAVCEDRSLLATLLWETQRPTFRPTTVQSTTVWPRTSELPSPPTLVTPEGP
Protocol: as §1

human GITR-Fc [3] = biological target: T3, human GITR-Fc (human, UniProt Q9Y5U5 26-162, conjugated with europium cryptate in the HTRF assays); test: HTRF competition: titrated FP against binding of GITRL-HA (anti-HA XL665) to europium cryptate hGITR-Fc
T3 construct: also called hGITR-Fc; hGITRFc; not shown: Fc domain of hIgG1
T3 sequence: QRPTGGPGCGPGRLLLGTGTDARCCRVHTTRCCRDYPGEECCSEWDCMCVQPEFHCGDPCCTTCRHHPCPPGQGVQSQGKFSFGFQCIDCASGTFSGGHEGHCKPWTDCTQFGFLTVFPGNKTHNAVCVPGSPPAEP
Protocol: (§2) The effect of the GITRL FP molecules on human GITRL binding to human GITR was determined using a Homogeneous Time Resolved Fluorescence (HTRF) assay.
(§3) The GITRL FP molecules were titrated into an HTRF assay in which binding of GITRL-HA (hemagglutinin tag) to GITR-Fc was measured. The human GITR Fc was conjugated with europium cryptate and an anti-HA antibody conjugated with XL665 was used to detect the GITRL-HA protein. IC₅₀ values were determined by curve fitting the analyzed data to a four parameter logistic equation with Prism 5.01 software (GraphPad).

human GITR-Fc [4] = biological target: T3, human GITR-Fc; test: as above; remark: listed apart in the source
Protocol: as §2, §3

human GITR-Fc [5] = biological target: T3, human GITR-Fc; test: HTRF direct binding, Eu cryptate hGITR-Fc and anti-FLAG XL665, one site saturation fit
Protocol: The hGITRL FP molecules were titrated into an HTRF assay in which binding of the hGITRL FP to hGITR-Fc was measured. The human hGITR Fc was conjugated with europium cryptate and an anti-FLAG antibody conjugated with XL665 was used to detect the hGITRL FP protein. KD values were determined by curve fitting the analyzed data to a one site saturation binding equation with Prism 5.01 software (GraphPad).

human GITR-Fc [6] = biological target: T3, human GITR-Fc; test: HTRF competition; competitor GITRL-HA on GITR-Fc
Protocol: The effect of the hexameric GITRL FP molecules on human GITRL binding to human GITR was determined using a Homogeneous Time Resolved Fluorescence (HTRF) assay.
as §3, with “The hexameric GITRL FP” for “The GITRL FP”

[7] = biological target: T4, human GITR expressed on cells (human, UniProt Q9Y5U5 26-241); test: cell-based or functional assay
T4 sequence: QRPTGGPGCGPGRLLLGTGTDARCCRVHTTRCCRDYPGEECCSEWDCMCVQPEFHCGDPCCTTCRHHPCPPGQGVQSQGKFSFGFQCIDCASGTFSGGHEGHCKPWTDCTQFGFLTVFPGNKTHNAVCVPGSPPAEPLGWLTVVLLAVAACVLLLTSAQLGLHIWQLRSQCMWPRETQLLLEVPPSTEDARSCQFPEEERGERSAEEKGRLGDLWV

B1: mOX40L-FP mIgG1 (Fc fusion)
chain: VPRDCGCKPCICTVPEVSSVFIFPPKPKDVLTITLTPKVTCVVVDISKDDPEVQFSWFVDDVEVHTAQTQPREEQFNSTFRSVSELPIMHQDWLNGKEFKCRVNSAAFPAPIEKTISKTKGRPKAPQVYTIPPPKEQMAKDKVSLTCMITDFFPEDITVEWQWNGQPAENYKNTQPIMDTDGSYFVYSKLNVQKSNWEAGNTFTCSVLHEGLHNHHTEKSLSHSPGKRLDQDKIEALSNKVQQLERSIGLKDLAMADLEQKVSELEVSTSSPAKDPPIQRLRGAVTRCEDGQLFISSYKNEYQTMEVQNNSVVIKCDGLYIIYLKGSFFQEVKIDLHFREDHNPISIPMLNDGRRIVFTVVASLAFKDKVYLTVNAPDTLCEHLQINDGELIVVQLTPGYCAPEGSYHSTVNQVPL
notes: also called murine OX40L FP mIgG1; Mouse OX40L FP mIgG1
- binding result [1]: no binding
- binding result [2]: binds

B2: hGITRL FP wt (Fc fusion)
chain: QLETAKEPCMAKFGPLPSKWQMASSEPPCVNKVSDWKLEILQNGLYLIYGQVAPNANYNDVAPFEVRLYKNKDMIQTLTNKSKIQNVGGTYELHVGDTIDLIFNSEHQVLKNNTYWGIILLANPQFIS
notes: not shown: detection with anti-FLAG antibody implies a FLAG e
- IC50 (human GITR-Fc [3]): 0.631 nM
- IC50 (human GITR-Fc [4]): 0.696 nM
- Kd (human GITR-Fc [5]): 1.23 nM

B3: hGITRL FP N161D (Fc fusion)
chain: QLETAKEPCMAKFGPLPSKWQMASSEPPCVNKVSDWKLEILQNGLYLIYGQVAPNANYNDVAPFEVRLYKNKDMIQTLTNKSKIQNVGGTYELHVGDTIDLIFNSEHQVLKDNTYWGIILLANPQFIS
notes: as for B2
- IC50 (human GITR-Fc [4]): 0.63 nM
- Kd (human GITR-Fc [5]): 1.08 nM

B4: hexameric GITRL FP (GCN4 pII) (Fc fusion, not shown: a dimerising Fc or GST; small tags and cut ends)
chain (part 1 of 2): not shown
chain (part 2 of 2): LQLETAKEPCMAKFGPLPSKWQMASSEPPCVNKVSDWKLEILQNGLYLIYGQVAPNANYNDVAPFEVRLYKNKDMIQTLTNKSKIQNVGGTYELHVGDTIDLIFNSEHQVLKNNTYWGIILLANPQFIS
- IC50 (human GITR-Fc [6]): 1.06 nM
- EC50 (nM), human GITR transfected NF-κB luciferase gene reporter cell line [7]: 1.02 nM

B5: hexameric GITRL FP (Coronin 1a wt) (Fc fusion, not shown: a dimerising Fc or GST; small tags and cut ends)
chain (part 1 of 2): VSRLEEEMRKLQATVQELQKRLDRLEETVQAK
chain (part 2 of 2): LQLETAKEPCMAKFGPLPSKWQMASSEPPCVNKVSDWKLEILQNGLYLIYGQVAPNANYNDVAPFEVRLYKNKDMIQTLTNKSKIQNVGGTYELHVGDTIDLIFNSEHQVLKNNTYWGIILLANPQFIS
- IC50 (human GITR-Fc [6]): 0.61 nM
- EC50 (nM), human GITR transfected NF-κB luciferase gene reporter cell line [7]: 0.95 nM

B6: hexameric GITRL FP (Matrilin 1 wt) (Fc fusion, not shown: a dimerising Fc or GST; small tags and cut ends)
chain (part 1 of 2): CACESLVKFQAKVEGLLQALTRKLEAVSKRLAILENTVV
chain (part 2 of 2): LQLETAKEPCMAKFGPLPSKWQMASSEPPCVNKVSDWKLEILQNGLYLIYGQVAPNANYNDVAPFEVRLYKNKDMIQTLTNKSKIQNVGGTYELHVGDTIDLIFNSEHQVLKNNTYWGIILLANPQFIS
- IC50 (human GITR-Fc [6]): 1.36 nM
- EC50 (nM), human GITR transfected NF-κB luciferase gene reporter cell line [7]: 1.12 nM

B7: hGITRL FP N129A (Fc fusion)
chain: LQLETAKEPCMAKFGPLPSKWQMASSEPPCVNKVSDWKLEILQNGLYLIYGQVAPNANYNDVAPFEVRLYKNKDMIQTLTAKSKIQNVGGTYELHVGDTIDLIFNSEHQVLKNNTYWGIILLANPQFIS
notes: also called N129A mutated hGITRL FP; not shown: detection with anti-FLAG antibody implies a FLAG e
- Kd (human GITR-Fc [5]): 3.77 nM

B8: hexameric GITRL FP (DMPK wt) (Fc fusion, not shown: a dimerising Fc or GST; small tags and cut ends)
chain (part 1 of 2): EAEAEVTLRELQEALEEEVLTRQSLSREMEAIRTDNQNFASQLREAEARNRDLEAHVRQLQERMELLQAE
chain (part 2 of 2): LQLETAKEPCMAKFGPLPSKWQMASSEPPCVNKVSDWKLEILQNGLYLIYGQVAPNANYNDVAPFEVRLYKNKDMIQTLTNKSKIQNVGGTYELHVGDTIDLIFNSEHQVLKNNTYWGIILLANPQFIS
- IC50 (human GITR-Fc [6]): 2.73 nM
- EC50 (nM), human GITR transfected NF-κB luciferase gene reporter cell line [7]: 1.37 nM

B9: hexameric GITRL FP (Matrilin 1 variant) (Fc fusion, not shown: a dimerising Fc or GST; small tags and cut ends)
chain (part 1 of 2): CACESLVKFQAKVEGLIQALTRKLEAVSKRIAILENTVV
chain (part 2 of 2): LQLETAKEPCMAKFGPLPSKWQMASSEPPCVNKVSDWKLEILQNGLYLIYGQVAPNANYNDVAPFEVRLYKNKDMIQTLTNKSKIQNVGGTYELHVGDTIDLIFNSEHQVLKNNTYWGIILLANPQFIS
- IC50 (human GITR-Fc [6]): 0.83 nM
- EC50 (nM), human GITR transfected NF-κB luciferase gene reporter cell line [7]: 0.9 nM

B10: hexameric GITRL FP (Langerin variant) (Fc fusion, not shown: a dimerising Fc or GST; small tags and cut ends)
chain (part 1 of 2): ISALNTKIRAIQGSIENMSKLIKRQNDIIQVVS
chain (part 2 of 2): LQLETAKEPCMAKFGPLPSKWQMASSEPPCVNKVSDWKLEILQNGLYLIYGQVAPNANYNDVAPFEVRLYKNKDMIQTLTNKSKIQNVGGTYELHVGDTIDLIFNSEHQVLKNNTYWGIILLANPQFIS
- IC50 (human GITR-Fc [6]): 2 nM
- EC50 (nM), human GITR transfected NF-κB luciferase gene reporter cell line [7]: 0.75 nM

B11: hGITRL FP N92D (Fc fusion, not shown: a dimerising Fc or GST)
chain: LQLETAKEPCMAKFGPLPSKWQMASSEPPCVNKVSDWKLEILQDGLYLIYGQVAPNANYNDVAPFEVRLYKNKDMIQTLTNKSKIQNVGGTYELHVGDTIDLIFNSEHQVLKNNTYWGIILLANPQFIS
- IC50 (human GITR-Fc [3]): 0.587 nM

B12: hexameric GITRL FP (Coronin 1a variant) (Fc fusion, not shown: a dimerising Fc or GST; small tags and cut ends)
chain (part 1 of 2): ISRIEEEIRKINATVQELQKRIDRLEETVQAK
chain (part 2 of 2): LQLETAKEPCMAKFGPLPSKWQMASSEPPCVNKVSDWKLEILQNGLYLIYGQVAPNANYNDVAPFEVRLYKNKDMIQTLTNKSKIQNVGGTYELHVGDTIDLIFNSEHQVLKNNTYWGIILLANPQFIS
- IC50 (human GITR-Fc [6]): 1.44 nM
- EC50 (nM), human GITR transfected NF-κB luciferase gene reporter cell line [7]: 0.74 nM

B13: hexameric GITRL FP (DMPK variant) (Fc fusion, not shown: a dimerising Fc or GST; small tags and cut ends)
chain (part 1 of 2): IAEIEVTIRELQEAIEEEVLTRQSLSREIEAIRTDIQNIASQLREIEARIRDLEAHVRQLQERMELLQAE
chain (part 2 of 2): LQLETAKEPCMAKFGPLPSKWQMASSEPPCVNKVSDWKLEILQNGLYLIYGQVAPNANYNDVAPFEVRLYKNKDMIQTLTNKSKIQNVGGTYELHVGDTIDLIFNSEHQVLKNNTYWGIILLANPQFIS
- IC50 (human GITR-Fc [6]): 2.43 nM
- EC50 (nM), human GITR transfected NF-κB luciferase gene reporter cell line [7]: 1.39 nM

B14: hGITRL FP N104D (Fc fusion, not shown: a dimerising Fc or GST)
chain: LQLETAKEPCMAKFGPLPSKWQMASSEPPCVNKVSDWKLEILQNGLYLIYGQVAPDANYNDVAPFEVRLYKNKDMIQTLTNKSKIQNVGGTYELHVGDTIDLIFNSEHQVLKNNTYWGIILLANPQFIS
notes: also called N104D GITRL FP
- IC50 (human GITR-Fc [3]): 0.529 nM

B15: hGITRL FP N129A/N161D (Fc fusion)
chain: LQLETAKEPCMAKFGPLPSKWQMASSEPPCVNKVSDWKLEILQNGLYLIYGQVAPNANYNDVAPFEVRLYKNKDMIQTLTAKSKIQNVGGTYELHVGDTIDLIFNSEHQVLKDNTYWGIILLANPQFIS
notes: as for B2
- Kd (human GITR-Fc [5]): 11.8 nM
